Source: the DeepSol protein solubility set

experiment: soluble on expression in E. coli; label from the status in PepcDB or PDB records

Sequence | soluble on expression in E. coli
MKSMSEYLNLLKEAIQNVVDGGWHETKRKGNTGIGKTFEDLLEKEEDNLDAPDFHDIEIKTHETAAKSLLTLFTKSPTNPRGANTMLRNRYGKKDEYGNNILHQTVSGNRKTNSNSYNYDFKIDIDWESQVVRLEVFDKQDIMIDNSVYWSFDSLQNQLDKKLKYIAVISAESKIENEKKYYKYNSANLFTDLTVQSLCRGIENGDIKVDIRIGAYHSGKKKGKTHDHGTAFRINMEKLLEYGEVKVIV | soluble
GMECRPLCIDDLELVCRHREAMFREAGRDALTLAAMQDPFRDWLLPRLADGSYFGWVMEEGGAPLAGIGLMVIEWPPHPSHPLQDKRGYILNLYVDPSHRERGIGQALMNRAEAEFAERGIAFAVLHATEMGQPLYARMGWSPTTEMSKPIAG | soluble
MGSDKIHHHHHHMEMMRDAVQFEPADSRVTRPSFWSSLPERWTSDVEETLVCCHVRQETHDVKSFFFHSPDGRAFVFEPGQFITLELEIEGETINRCYTISSSPARPHTLSITVKRVPGGKVSNWLHDNVRPGTPIRVLGPAGEFTCARHPARKYLFLSAGSGITPLMSMSRAHHDLGEDRDIVFVHSARTPDDIIFSRELDLIASNHANFRTSFVCESVGARTSWPGVTGFLSLPLLKLIAPDFMEREIFTCGPAPYMKAVRDLLDEGGFDRRRYHEESFSFETLTADGPADAPAPDTGVASAPHGIADMAAFSVSFAKSRREIVCSSGQHVLEAARQSGVRLPASCTQGMCGTCKVKLVSGQVEMKHNGGIRQREIDQGMVLLCCSKPLSDLVIDK | not soluble
MNNPKPCEWKSNELSRGYIADYKAFNFVDGEGVRCSLYVSGCPFHCEGCYNKAAQSFKYGKPYTKELEDDILKDIGHESVQGLTLLGGEPFLNTATCLSIVKRIRATYGETKDIWSWTGYTWDEMMQETADKLELLSLIDVLVDGRFEQKLFDPNLAFRGSSNQRIIDVQKSLAAGEVVLYELLEHHHHHH | not soluble
MNPKIVFFDIDDTLYRKYTDTLRPSVKTAVAALRGKGILTALATGRSLATIPEKVRDMMAEAGMDAVVTINGQFALLHGKTVREVPMDAGLMGRVCAHLDGLGMDYAFVGGEGIAVSALSECVCRALKHIASDFFADKDYFSSKPVYQMLVFAEENEMPL | not soluble
MVKDEVIKQISTPLTSPAFPRGPYKFHNREYFNIVYRTDMDALRKVVPEPLEIDEPLVRFEIMAMHDTSGLGCYTESGQAIPVSFNGVKGDYLHMMYLDNEPAIAVGRELSAYPKKLGYPKLFVDSDTLVGTLDYGKLRVATATMGYKHKALDANEAKDQICRPNYMLKIIPNYDGSPRICELINAKITDVTVHEAWTGPTRLQLFDHAMAPLNDLPVKEIVSSSHILADIILPRAEVIYDYLK | soluble
MGSDKIHHHHHHMDYTRYVVQPGDSIYKIANAYKIEMSDIINLNHLKHPDRIYPGQILLLPTYEFKDTLPGEIPEPNFTYAMWLFDVYAGKDSELSAVTTYLYQAVVLDRPEFDELLRPIAYDELRHLEQLAWCIRFLGVDPRYGSFSKGRWFDWRSRYLNYSTELCVILDHNMKDEAAAVKHYTDLAQKIPIPEIQTILLQLAADEERHYQCLAQAKTRFCGCGSSQTQHIKESSNGEEL | not soluble
MGRGRAKAKQTKVARELKYSSPQTDFQRLQRELSGTGTDRLDGDGPSDDDSWNDEDDWRR | not soluble
MRGLSLSPVVLPEVRREAGVELRKARLEDVDAIYWLIRYWAEKGLMLVRSHSHLYENIRDFWVLEDEDGQIVGTVALHVLWRDLAEIRGLAVHPTRQGQGLGRWLVLGAEREARDLGLPRVFAWTLQVNFFRALGYRVTSR | not soluble
MSSNNRKKLLLMGRSGSGKSSMRSIIFSNYSAFDTRRLGATIDVEHSHLRFLGNMTLNLWDCGGQDVFMENYFTKQKDHIFQMVQVLIHVFDVESTEVLKDIEIFAKALKQLRKYSPDAKIFVLLHKMDLVQLDKREELFQIMMKNLSETSSEFGFPNLIGFPTSIWDESLYKAWSQIVCSLIPNMSNHQSNLKKFKEIMNALEIILFERTTFLVICSSNGENSNENHDSSDNNNVLLDPKRFEKISNIMKNFKQSCTKLKSGFKTLILNNNIYVSELSSNMVCFIVLKDMNIPQELVLENIKKAKEFFQ | soluble
